Laboratory results published in the nanobody polyreactivity screen of Harvey et al. (2022).

Assay: yeast display, Sf9 membrane polyspecificity reagent, FACS + sequencing; frameworks hold sequencing errors
Procedure, shortened: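 A synthetic nanobody library was expressed on Saccharomyces cerevisiae BJ5465 by galactose induction for 36–48 hours. The library was stained for 1 hour at 4 °C with 10% biotinylated, detergent-solubilized Sf9 membrane reagent and enriched with streptavidin microbeads before FACS. Low and high (top ~1%) gates were set on anti-HA fluorescence for expression and streptavidin fluorescence for reagent binding, and each polyreactivity label reflects the gate of origin.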
With “QVQLVESGGGLVQAGGSLRLSCAASGFTFYRNAMGWYRQAPGKEREMVAAISWSGDSTYYADSVKGRFTISRDNAKNTVYLQMNSLNPEDTAVYYCAKERYFYYPWVTTYTSNYWGQGTQVTVSS” the “polyreactivity (PSR sort gate)” value was “low polyreactivity”.
For “QVQLVESGGGLVQAGGSLRLSCAASGFTFYRNAMGWYRQPPGKERELVAAIDFSGSSTYYADSVKGRFTISRDNAKNTVYLQMNSLKPEDTAVYDCAAELGYAGYWYDYWGQGTQVTVSS”, the “polyreactivity (PSR sort gate)” value was “high polyreactivity”.
In the case of “QVQLVESGGGLVQAGGSLRLSCAASGFTFYRYAMGWYRKAPGKERELVAAITRSGSRTYYADSVKGRFTISRDNAKNTVYLQMNSLKPEDTAVYYCKTDGGDHPTARYGYWGQGTQVTVSS”, the “polyreactivity (PSR sort gate)” value is reported as “high polyreactivity”.
With “QVQLVESGGGLVQAGGSLRLSCAASGFTFYRYAMGWYRQAPGKERELVAAITRTGGSTYYADSVKGRFTISRDNAKNTVYLQMNSLKPEDTAVYYCAARVHGTGTLKYPNYYWGQGTQVTVSS” the “polyreactivity (PSR sort gate)” value was “high polyreactivity”.
With “QVQLVESGGGLVQAGGSLRLSCAASGFTFYRYAMGWYRQAPGKERELVATISASGGSTYYADSVKGRFTISRDNAKNTVYLQMNSLKPEDTAVYYCAVRYKSWFGFNYWGQGTQVSVSS” the “polyreactivity (PSR sort gate)” value was “high polyreactivity”.
For “QVQLVESGGGLVQAGGSLRLSCAASGFTFYRYTMGRYRQAPGKERELVAAITWSGGNTYYADSVKGRFTISRDNAKNTVYLQMNSLKPEDNAVYYCAAYKPYSKYNYWGQGTQVTVSS”, the “polyreactivity (PSR sort gate)” value was “high polyreactivity”.
With “QVQLVESGGGLVQAGGSLRLSCAASGFTFYRYVMGWYRKAPGKETELDAAISRRGGSTYYADSVKGRFTISRDNAKNTVYLQMNSLKPEDTAVYYCAADVISRYYVQYIGYYELHYDYWGQGTQVTVSS” the “polyreactivity (PSR sort gate)” value was “high polyreactivity”.
With “QVQLVESGGGLVQAGGSLRLSCAASGFTFYSYAMGWYRQAPGKEREFVAAGSTYYADSVKGRFTISRDNAKNTVYLQMNSLKPEDTAVYYCAADPWIYVQSYGYWGQGTQVTVSS” the “polyreactivity (PSR sort gate)” value was “low polyreactivity”.
In the case of “QVQLVESGGGLVQAGGSLRLSCAASGFTFYSYAMGWYRQAPGKERELVAAISWSGSRTYYADSVKGRFTISRDNAKNTVYLQMNSLKPEDTAVYYCTKYLPRHRYDFDYWGQGTQVTVSS”, the “polyreactivity (PSR sort gate)” value is reported as “high polyreactivity”.
With “QVQLVESGGGLVQAGGSLRLSCAASGFTFYSYAMGWYRQAPGKERELVATISRNGGTTRYADSVKGRFTISRDNAKNTVYLQMNSLKPEDTAVYYCNAVYYAYSRHSYAMDYWGQGTQVTVSS” the “polyreactivity (PSR sort gate)” value was “high polyreactivity”.
With “QVQLVESGGGLVQAGGSLRLSCAASGFTFYSYAMGWYRQAPGKERELVATITASGGSTYYADSVKGRFTISRDNAKNSVYLQMISLKPEDTAVYYCAAYHPHGFDYYRYYYWGQGTQVTVSS” the “polyreactivity (PSR sort gate)” value was “high polyreactivity”.
For “QVQLVESGGGLVQAGGSLRLSCAASGFTFYSYAMGWYRQAPGTERELVAAISGGGGSTYYADSVKGRFTISRDNAKNTVYLQMNSLKPEDTAVYYCAKRPAYRGYGLGYYWGQGTQVTVSS”, the “polyreactivity (PSR sort gate)” value was “high polyreactivity”.
For “QVQLVESGGGLVQAGGSLRLSCAASGFTFYSYTMGWYRQAPGKERELVAAITRGGRTYYADSVKGRFTISRDNAKNTVYLQMNSLKPEDTAVYYCAARVGSWTQSFGYDYWGQGTQVTVSS”, the “polyreactivity (PSR sort gate)” value was “high polyreactivity”.
With “QVQLVESGGGLVQAGGSLRLSCAASGFTFYTNAMGWYRQAPGKERELVADITTSGGDTYYADSVKGRFTISRDNAKNTVYLQMNSLTPEDTAVYYCGEFWTYWGYGQYDYWGQCTQVTVSS” the “polyreactivity (PSR sort gate)” value was “low polyreactivity”.
For “QVQLVESGGGLVQAGGSLRLSCAASGFTFYTYAMGWYRQAPGKERELVADISSGGSTNYADPVKGRFTISRDNAKNTVDLQMNCLKPEDTAVYYCSADYYFLDWYDYWGQGTQVTVSS”, the “polyreactivity (PSR sort gate)” value was “low polyreactivity”.
For “QVQLVESGGGLVQAGGSLRLSCAASGFTFYTYAMGWYRQEPGKEREMVATISGSGGDTNYADSVKGRFTISRDNAKNTGYLQMDSLKPEDTAVYYCAAETQSVWSGFYYWGQGTQVTVSS”, the “polyreactivity (PSR sort gate)” value was “low polyreactivity”.
For “QVQLVESGGGLVQAGGSLRLSCAASGFTFYTYAMGWYRQPPGKERELVAAISRRGGSTYYADSVKGRFTISRDNAKNTVYLQMNSLKPEDTAVYYFNAVADSYSGFDGYYYWGQGTQVTVSS”, the “polyreactivity (PSR sort gate)” value was “high polyreactivity”.
In the case of “QVQLVESGGGLVQAGGSLRLSCAASGFTFYTYVMGWYIQAPGKERELVAAITSGVYTNYADSVKGRFTISRDNAKNTVDLQMKSLKPEDTAVYYCNKDVRQAYRWYDSWGQDTQVTVSS”, the “polyreactivity (PSR sort gate)” value is reported as “low polyreactivity”.
In the case of “QVQLVESGGGLVQAGGSLRLSCAASGFTFYTYVMGWYRQAPGKERELVAAITSGVSTNYADSVKGRFTISRDNAKNTVYLQMNSLKPEDTAVYYCAAGSDFQYGHDYWGQGTQVTVSS”, the “polyreactivity (PSR sort gate)” value is reported as “low polyreactivity”.
With “QVQLVESGGGLVQAGGSLRLSCAASGFTFYVNAMGWYRQAPGKEREFVAAISASGASTRYADSVKGRFTISRDNAKNTVYLQMNSLKPEDTAVYYCAADAPAWILEAYGYWGQGTQVTVSS” the “polyreactivity (PSR sort gate)” value was “low polyreactivity”.
In the case of “QVQLVESGGGLVQAGGSLRLSCAASGFTFYVYAIGWYRKAPRKEREFVAAISKSGGRTYYADSVKGRFTISRDTAKNTVYLQMNSLKPEDTAVYYCGRYNRYQIIYPRFDYWGHGTQVTVSS”, the “polyreactivity (PSR sort gate)” value is reported as “high polyreactivity”.
In the case of “QVQLVESGGGLVQAGGSLRLSCAASGFTFYVYAMGWYRQARGQERELVATISRGGSTNYADSVKGRFTISRDNAKNTVYLQMNSLKPEDTAVYYCAARKYHYFPSRYGYWGQGTQVTVSS”, the “polyreactivity (PSR sort gate)” value is reported as “high polyreactivity”.
For “QVQLVESGGGLVQAGGSLRLSCAASGFTFYWNAMGWSRQAPGKERELVAAINGGDSTNYADSVKGRFTISRDNAKNTVYLQMNSLKPEDTAVYYCAAEPSLEAWTAFGSYYWGQGTQVTVSS”, the “polyreactivity (PSR sort gate)” value was “low polyreactivity”.
For “QVQLVESGGGLVQAGGSLRLSCAASGFTFYWYAMGWYRQAPGKERQLVAAISKTGGSTYYADSVKGRFTISRDNAQKTVYLQMTSLKPEDTAVYYCNADKVATWRTHHDYWGQGTQVTVSS”, the “polyreactivity (PSR sort gate)” value was “low polyreactivity”.
With “QVQLVESGGGLVQAGGSLRLSCAASGFTFYYNAMGWYRQAPGKERELVAIRFRGGNTYYADSVKGRFTISRDNAKNTVYLQMNSLKPEDTAVYYCNADDRGSTYVDFDYWGQGTQVTVSS” the “polyreactivity (PSR sort gate)” value was “low polyreactivity”.
In the case of “QVQLVESGGGLVQAGGSLRLSCAASGFTFYYNAMGWYRQAPGKERELVAIRFRGGNTYYADSVKGRFTISRDNAKNTVYLQMNSLKPEDTAVYYCNADDRGSTYVEFDYWGQGTQVTVSS”, the “polyreactivity (PSR sort gate)” value is reported as “low polyreactivity”.
In the case of “QVQLVESGGGLVQAGGSLRLSCAASGFTFYYYAMGWSRQAPGKERELVAAISTRDGNTYYADSVKGRFTISRDNAKNTVYLQRNSLKPEDTAVYYCAADYFRYYPYDYWGQGTQVTVSS”, the “polyreactivity (PSR sort gate)” value is reported as “low polyreactivity”.
For “QVQLVESGGGLVQAGGSLRLSCAASGFTFYYYAMGWYRQAPGKERELVAAIDTGGSTNYADSVKGRFTISRDNAKNTVYLQMNSLKPEDTAVYYCNADTPDHYGHYDYWGQGTQVTVSS”, the “polyreactivity (PSR sort gate)” value was “low polyreactivity”.
In the case of “QVQLVESGGGLVQAGGSLRLSCAASGFTFYYYAMGWYRQAPGKERELVAAISSSGVRTYYADSVKGRFTISRDNAKNTVYLQMKSLKPEDTAVYYCATVGRGFPSVELDYWGQGTQVTVSS”, the “polyreactivity (PSR sort gate)” value is reported as “high polyreactivity”.
With “QVQLVESGGGLVQAGGSLRLSCAASGFTFYYYAMGWYRQAPRKERQLVAAFSWSGGSTYYADSVKGRFTISRDYAKNTVYLQMNRLKPVDTAVYYCNAYPGYRSRSDYGYWGQGTQVTVSS” the “polyreactivity (PSR sort gate)” value was “high polyreactivity”.
In the case of “QVQLVESGGGLVQAGGSLRLSCAASGFTFYYYTMGWYRQAPGKEMELVADISSGDRTYYADSVKGRFTISRDNAKNTVYLQMNSLKPEDTAVYYCAAPAKYYTRFGHYILNQDYDSWGQGTQVTVSS”, the “polyreactivity (PSR sort gate)” value is reported as “low polyreactivity”.
In the case of “QVQLVESGGGLVQAGGSLRLSCAASGFTIADYAMGWYRQAPGKERELVAAITYSGGSTYYADSVKGRFTISRDNAKNTVYLQMNSLKPEDTAVYYWNADYASQSGYDYWGQGTQVTVSS”, the “polyreactivity (PSR sort gate)” value is reported as “low polyreactivity”.
With “QVQLVESGGGLVQAGGSLRLSCAASGFTIAGYAMGWYRQAPWKERELVAAISRGGITYYADSVKGRFTISRDNAKNTVYLQMNSLKPEDTAVYYCAAGKRWSTKYGYWGQGTQVTVSS” the “polyreactivity (PSR sort gate)” value was “high polyreactivity”.
With “QVQLVESGGGLVQAGGSLRLSCAASGFTIASNDMGWYRQAPGKERELVAAITKGGGRTYYADSVKGRFTISRDNAKNTVYLQMNSLKPEDTAVYYCAARQLIKYDYWGQGTQVTVSS” the “polyreactivity (PSR sort gate)” value was “low polyreactivity”.
For “QVQLVESGGGLVQAGGSLRLSCAASGFTIDTYAMGWYRQAPGKERELVAGISWSGGSTYYADSVKGRFTISRDNAKNTVYLQMNSLKPEDTAVYYCARTARRRYQPYEYWGQGTQVTVSS”, the “polyreactivity (PSR sort gate)” value was “low polyreactivity”.
In the case of “QVQLVESGGGLVQAGGSLRLSCAASGFTIGYYAMGWYRQAPGKERELDAAISSGGGSTKYADSVKGRFTISRDNAKNTVYLQMNSLKPVDTAVYYFAKSRLVRGRSSYDYWGQGSQVTVSS”, the “polyreactivity (PSR sort gate)” value is reported as “high polyreactivity”.
For “QVQLVESGGGLVQAGGSLRLSCAASGFTIGYYAMGWYRQAPGKERELVAAISWSGGRTYYAYSVKGRFTISRDNAKNTVYLQMNSLKPEDTAVYYCAADGQQTYSGYDYWGQGTQVTVSS”, the “polyreactivity (PSR sort gate)” value was “high polyreactivity”.
In the case of “QVQLVESGGGLVQAGGSLRLSCAASGFTIHYYVMVWYRQAPGKERELVAAIRRGGSTSYADSVKGRFTISRDNAKNTVYLQMNSLKPEDTAVYYCAASYVSGERYDYWGQGTQVTVSS”, the “polyreactivity (PSR sort gate)” value is reported as “low polyreactivity”.
With “QVQLVESGGGLVQAGGSLRLSCAASGFTIIYYAMGWYRQAPGKERELVAAITDSGGSTYYADSVKGRFTISRDNAKNTVYLQMNSLKPEDTAVYYCAARLTCSRFYYWGQGTQVTVSS” the “polyreactivity (PSR sort gate)” value was “high polyreactivity”.
For “QVQLVESGGGLVQAGGSLRLSCAASGFTIKYNTMGWYRQAPGKERELVAAITSNTGSTYYADSVKGRFTISRDNAKNTVYLQMNSLKPEDTAVYYCAVTSYYRRYGYWGQGTQVTVSS”, the “polyreactivity (PSR sort gate)” value was “high polyreactivity”.
With “QVQLVESGGGLVQAGGSLRLSCAASGFTINFYGMGWYRQAPGKERELVAAITASGGGSTYYADSVKGRFTISRDNAKNTVYLQMNSLKPEDTAVYYCNADYTGSFYTYDYWGQGTQVTVSS” the “polyreactivity (PSR sort gate)” value was “low polyreactivity”.
With “QVQLVESGGGLVQAGGSLRLSCAASGFTIPYKAMGWYRHAPGKERELVAAISRSGTRTYYADSVKGRFTISRDNAKNTVYIQMNSLKPEDTAVYYCAKDTIGGASPHYYWGQGTQVTVSS” the “polyreactivity (PSR sort gate)” value was “high polyreactivity”.
In the case of “QVQLVESGGGLVQAGGSLRLSCAASGFTIRLYAMGWYRQAPGKERELVAAITSGGSTYADSVKGRFTISRDNAKNTVYLQMNSLKPEDTAVYYCNAEALVNGGYDYWGQGTQVTVSS”, the “polyreactivity (PSR sort gate)” value is reported as “high polyreactivity”.
